Assay results: article PMC7864060, “The cation diffusion facilitator protein MamM's cytoplasmic domain exhibits metal-type dependent binding modes and discriminates against Mn^2+” (The Journal of Biological Chemistry, 2020)

Tests used:
[1] = molecular target: the molecule itself; assay: crystal structure; MamM CTD 20 mg/ml co-crystallised with 3.375 mM CuSO4; 10 mM Tris pH 8.0, 150 mM NaCl, 5 mM β-mercaptoethanol; vapor diffusion, 293 K
[2] = molecular target: the molecule itself; assay: PELDOR (pulsed EPR) spectroscopy; four-pulse PELDOR at 50 K on MTSL-labelled C267S MamM CTD (250 or 500 µM in D2O, 30% glycerol-d8) incubated with 3- or 5-fold excess of Cd2+, Ni2+, Cu2+, Fe2+ or Mn2+; distance between the Cys-275 labels of the two protomers

Row | Protein | binding result [1] | binding result [2]
1 | MamM CTD (cytoplasmic C-terminal domain of MamM, residues 215-318) (domain or fragment, UniProt V6F235 215-318, looked up, MamM, cation diffusion facilitator iron transporter of magnetotactic bacteria, UniProt Q6NE57, C-terminal domain, residues 215-318; Homodimer in all crystal forms; also called WT MamM CTD; MamM's cytoplasmic domain) EAVQNRIVEAAERVPGVRGVIHLRARYVGQDIWADMIIGVDPENTVEQAHEICEAVQAAVCGKIRRIESLHVSAEAREIGDTTKPSFSDQPLSFDEVMLSKVDN | binds | –
2 | spin-labeled C267S MamM CTD (domain or fragment, UniProt V6F235 215-318, looked up, MTSL spin label on Cys-275, MamM, cation diffusion facilitator iron transporter of magnetotactic bacteria, UniProt Q6NE57, C-terminal domain, residues 215-318, with C267S; Only Cys-275 is left for labelling with MTSL; also called C267SSL; MamM CTD C267S) EAVQNRIVEAAERVPGVRGVIHLRARYVGQDIWADMIIGVDPENTVEQAHEISEAVQAAVCGKIRRIESLHVSAEAREIGDTTKPSFSDQPLSFDEVMLSKVDN | – | binds
